The text below walks through data of patent US20240317862A1 (AMPSOURCE BIOPHARMA SHANGHAI, published 2024).

In test [1] the target is T1, human B7-H3 on tumor cells (Hs578T, MDA-MB-436, MDA-MB-468, MDA-MB-231, MDA-MB-453, HT-29) (human, UniProt Q5ZPR3 29-534).
T1 construct: whole, on cells; also called target cells
T1 sequence (looked up): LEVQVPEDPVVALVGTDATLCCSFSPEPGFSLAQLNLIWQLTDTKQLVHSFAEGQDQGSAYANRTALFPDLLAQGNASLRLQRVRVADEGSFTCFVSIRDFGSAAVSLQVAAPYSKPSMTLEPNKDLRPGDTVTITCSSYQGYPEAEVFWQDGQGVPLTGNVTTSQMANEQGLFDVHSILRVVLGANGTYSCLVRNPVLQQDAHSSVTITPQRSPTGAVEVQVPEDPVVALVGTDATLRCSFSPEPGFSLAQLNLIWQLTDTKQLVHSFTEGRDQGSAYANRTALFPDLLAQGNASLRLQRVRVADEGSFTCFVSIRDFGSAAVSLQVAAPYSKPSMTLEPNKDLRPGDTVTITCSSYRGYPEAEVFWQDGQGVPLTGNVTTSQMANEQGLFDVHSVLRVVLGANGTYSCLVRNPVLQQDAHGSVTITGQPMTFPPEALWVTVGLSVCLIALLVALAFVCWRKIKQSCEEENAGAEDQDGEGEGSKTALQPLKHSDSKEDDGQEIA
The experiment in a line: flow cytometry, MFI titration on MDA-MB-436 cells. On the procedure:
(§1) The collected cells were resuspended with 1% PBSB to adjust the cell density to 2×10⁶ cells/ml, placed in 96-well plates 100 μL (2×10⁵ cells) per well, and blocked for 0.5 hours at 4° C. The blocked cells were centrifuged to discard the supernatant, and a series of diluted antibodies mAb152 and mAb272 were added to the cells. The cells were incubated for 1 hour at 4° C., then centrifuged to discard the supernatant, and washed three times with a PBS solution with 1% BSA (PBSB). Diluted AF64-labeled goat anti-human IgG antibodies (Jackson, Cat. No. 109-605-088) were added to the cells, and the cells were incubated for 1 hour at 4° C. in the dark. The obtained cells were centrifuged to discard the supernatant and then washed twice with 1% PBSB, and cells in each well were resuspended with 100 μL of 1% paraformaldehyde (PF). The signal intensity was detected by flow cytometry. The analysis was performed with the mean fluorescence intensity (MFI) as the Y-axis and the antibody concentration as the X-axis through the software GraphPad Prism 7 to calculate the Kd values for the binding of the murine monoclonal antibodies to the tumor cells.

Test [2] concerns the target T1, human B7-H3 on tumor cells (Hs578T, …). The experiment in a line: flow cytometry, MFI titration on MDA-MB-231 cells. On the procedure:
as §1

For test [3] the target is unchanged. Kind of test: flow cytometry, MFI titration on HT-29 cells. As to the method: as §1
In test [4] the target is T2, murine B7-H3 protein (Sino Biological Inc. Beijing) (mouse, UniProt Q8VE98 29-244, limits assumed).
T2 construct: Bought protein coated on ELISA plates; also called mouse B7-H3 antigen; murine B7-H3 antigen
T2 sequence (looked up): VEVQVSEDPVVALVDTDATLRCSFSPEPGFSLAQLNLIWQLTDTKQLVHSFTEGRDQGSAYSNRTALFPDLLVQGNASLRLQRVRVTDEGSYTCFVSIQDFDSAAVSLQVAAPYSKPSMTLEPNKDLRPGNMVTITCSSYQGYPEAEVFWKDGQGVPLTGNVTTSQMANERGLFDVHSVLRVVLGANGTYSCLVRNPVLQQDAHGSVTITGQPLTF
Kind of test: ELISA, plate coated with 0.1 µg/mL murine B7-H3, HRP-labeled antibody, OD 450/620 nm. On the procedure:
(§2) The cross-reactivity of the anti-B7-H3 murine monoclonal antibodies with mouse and Cynomolgus monkey B7-H3 antigens was detected in this example.
(§3) Specific experimental procedures are as follows: The plates were coated with 100 μL of 0.1 μg/mL Cynomolgus monkey B7-H3 and murine B7-H3 proteins (Sino Biological Inc. Beijing) at room temperature overnight. The coating solution was discarded, and the wells were blocked for 0.5 hours with skimmed milk dissolved in phosphate buffered saline (PBS) and washed with PBS containing 0.05% Tween-20. 50 μL of purified HRP-labeled B7-H3 monoclonal antibodies was added to each well and incubated at room temperature for 1 hour. The cells were washed five times with PBS containing 0.05% Tween-20, 100 μL of TMB was added to each well, and color development was performed at room temperature for 5 min. 50 μL of 2N H₂SO₄ was added to each well to stop the color development reaction. The values at 450 nm were measured by a microplate reader. The results were imported into Graph Prism to calculate EC₅₀ values.

Test [5] has as its target T3, human B7-H3 (purchased from Acro Biosystems) (human, UniProt Q5ZPR3 29-461, limits assumed).
T3 construct: Bought protein coated on ELISA plates; also called human B7-H3 antigen; human B7-H3 molecules
T3 sequence (looked up): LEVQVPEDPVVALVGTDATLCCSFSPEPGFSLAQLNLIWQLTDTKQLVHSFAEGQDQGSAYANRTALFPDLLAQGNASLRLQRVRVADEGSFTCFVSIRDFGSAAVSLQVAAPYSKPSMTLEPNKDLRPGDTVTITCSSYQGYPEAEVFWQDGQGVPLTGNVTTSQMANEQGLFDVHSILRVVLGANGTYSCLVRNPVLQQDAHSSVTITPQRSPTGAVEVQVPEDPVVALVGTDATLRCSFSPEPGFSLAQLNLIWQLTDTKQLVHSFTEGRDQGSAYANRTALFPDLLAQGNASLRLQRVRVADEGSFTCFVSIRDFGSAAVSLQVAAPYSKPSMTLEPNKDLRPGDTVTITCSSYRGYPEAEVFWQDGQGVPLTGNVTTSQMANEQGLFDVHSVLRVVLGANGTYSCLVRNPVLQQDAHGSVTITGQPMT
Kind of test: ELISA, plate coated with 0.1 µg/mL human B7-H3, HRP goat anti-mouse IgG detection. As to the method:
Plates were coated with 100 μL of 0.1 μg/mL human B7-H3 (purchased from Acro Biosystems) at room temperature overnight. The coating solution was discarded, and the wells were blocked for 0.5 hours with skimmed milk dissolved in phosphate buffered saline (PBS) and washed with PBS containing 0.05% Tween-20 (PBST). The murine antibodies mAb152 and mAb272 against human B7-H3 to be tested were then diluted to appropriate concentrations, added to plates, 50 μL per well, and incubated at room temperature for 1 hour. The wells were washed with 0.05% PBST, and then 50 μL of HRP-labeled goat anti-mouse IgG polyclonal antibodies (purchased from Jackson Laboratory) was added to each well as the detection antibody and incubated at 37° C. for 1 hour. The cells were washed three times with 0.05% PBST, TMB was added to the plates, 100 μL/well, and color development was performed at room temperature for 5 min. 0.2 M H₂SO₄ was added, 50 μL/well, to stop the color development reaction. The light absorbance values at 450 nm/620 nm were measured by a microplate reader. A graph was drawn by software GraphPad Prism 7 with the absorbance as the Y-axis and the antibody concentration as the X-axis.

The target in test [6] is T1, human B7-H3 on tumor cells (Hs578T, …). Kind of test: flow cytometry, MFI titration on MDA-MB-468 cells. As to the method: as §1
Test [7] shares this target. Kind of test: flow cytometry, MFI titration on MDA-MB-453 cells. As to the method: as §1
For test [8] the target is unchanged. Kind of test: flow cytometry, MFI titration on Hs578T cells. As to the method:
as §1

Test [9] has as its target T4, Cynomolgus monkey B7-H3 protein (Sino Biological Inc. Beijing) (Cynomolgus monkey).
T4 construct: Bought protein coated on ELISA plates; also called monkey B7-H3 antigen
Kind of test: ELISA, plate coated with 0.1 µg/mL Cynomolgus monkey B7-H3, HRP-labeled antibody, OD 450/620 nm. On the procedure:
as §2, §3

Test [10] has as its target T5, His-labeled human B7-H3 (human, UniProt Q5ZPR3 29-461).
T5 construct: Coupled to a Ni-NTA sensor in BLI; also called antigen B7-H3; not shown: His label
T5 sequence (looked up): T3 sequence (looked up)
The experiment in a line: BLI (ForteBio Octet), His-labeled human B7-H3 on Ni-NTA sensor, antibody 3.125-100 nM. On the procedure: The binding affinity constants of the purified murine monoclonal antibodies to the antigen B7-H3 were determined by bio-layer interferometry (BLI) with a ForteBio Octet RED&QK system from PALL Corporation.

Where a chain is given by its changes, count along the chain named.

B1: murine monoclonal antibody mAb152 (antibody, V domains shown)
VH: QVQLQQPGAELVRPGASVKLSCKASGYTFTAYWMNWVKQRPDQGLEWIGRIDPYDSETRYNQNFRDKARLTVDKSSSTAYMQLSSLTSEDSAVFYCARGVRIFDYWGQGTTLTVSS
VL: DIQMTQSPASLAASVGETVTITCRTSENIDYTLAWYQQKPGKSPQLLIYNANTLEDGVPSRFSGSGSGTHFSLKINSMQPEDTATYFCKQAYDVPRTFGGGTKLEIK
As to B1, the Kd is 5.05 nM in [1]; 0.227 nM in test [2]; 1.25 nM in test [3]; 2.6 nM in test [6]; 0.273 nM in test [7]; 0.835 nM in test [8]. Also, the Kd in [10] was 0.015 nM. Further, the binding result in [4] is recorded as “no binding (tested: 10 µg/mL)”. This molecule also came in with an EC50 in test [5] of 6.69 ng/mL. Also, in test [9], the “EC50 (read off the curve)” value was ~6 ng/mL. The koff in test [10] amounted to 3.09e-06 s⁻¹. The same molecule came in with a kon in [10] of 207000 M⁻¹ s⁻¹.

B2: murine monoclonal antibody mAb272 (antibody, V domains shown)
VH: B1 VH
VL: B1 VL with H70L, S77N
Turning to B2, the Kd was 5.11 nM in [1]; 0.204 nM in [2]; 2.35 nM in test [3]; 3.24 nM in test [6]; 0.239 nM in [7]; 1.2 nM in test [8]. Also, the Kd in test [10] was < 0.001 nM. Also, the binding result in [4] is recorded as “no binding (tested: 10 µg/mL)”. The molecule further yielded an EC50 in test [5] of 6.16 ng/mL. In addition, the “EC50 (read off the curve)” value in test [9] was ~5 ng/mL. Moreover, the koff in test [10] was < 1e-07 s⁻¹. The kon in [10] stood at 220000 M⁻¹ s⁻¹.
